Measurements reported in patent publication US12540174 (NASCENT BIOTECH, dated 2026).

Tests used:
[1] = molecular target: T1, antigen of the potency binding ELISA of Example 1 (not named); assay: binding (potency) ELISA, OD 450 nm against Log10 [mAb]; reference standard (tox) lot stored in polypropylene cryovial 3; coated antigen not named; the table cell has no unit, ug/ml is taken from the concentration axis
T1 construct: kept apart from m2 so as not to guess

[2] = molecular target: T1, antigen of the potency binding ELISA of …; assay: binding (potency) ELISA, OD 450 nm against Log10 [mAb]; reference standard (tox) lot stored in polypropylene cryovial 2; coated antigen not named; the table cell has no unit, ug/ml is taken from the concentration axis
[3] = molecular target: T1, antigen of the potency binding ELISA of …; assay: binding ELISA (potency assay), antigen not named; lot stored in PETG serum vial
[4] = molecular target: T1, antigen of the potency binding ELISA of …; assay: binding ELISA (potency assay), antigen not named; lot stored in glass serum containers
[5] = molecular target: T2, recombinant human vimentin (human, UniProt P08670 1-466, limits assumed); assay: BLI, Octet HTX, 25 C; pritumumab on anti-human-Fc (AHC) biosensors, recombinant human vimentin as analyte, 1:1 model
T2 construct: also called recombinant vimentin
T2 sequence (P08670 whole entry): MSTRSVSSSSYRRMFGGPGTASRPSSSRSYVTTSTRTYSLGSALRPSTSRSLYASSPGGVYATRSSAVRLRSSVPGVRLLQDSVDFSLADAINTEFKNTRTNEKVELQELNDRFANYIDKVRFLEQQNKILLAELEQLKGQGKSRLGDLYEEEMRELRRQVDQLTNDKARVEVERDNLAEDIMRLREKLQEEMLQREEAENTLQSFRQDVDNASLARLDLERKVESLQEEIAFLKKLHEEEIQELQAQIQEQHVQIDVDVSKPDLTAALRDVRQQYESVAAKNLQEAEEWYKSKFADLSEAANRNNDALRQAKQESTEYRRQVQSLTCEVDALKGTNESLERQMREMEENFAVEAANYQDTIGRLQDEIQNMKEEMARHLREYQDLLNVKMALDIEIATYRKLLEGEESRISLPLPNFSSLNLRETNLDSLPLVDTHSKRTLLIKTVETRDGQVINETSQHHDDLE
Description: (§1) To determine binding affinity of the antibody Pritumumab for vimentin. Octet HTX was employed to measure the antibody binding to human vimentin. Binding experiments were performed on Octet HTX at 25° C. Pritumumab (10 ug/ml) was loaded onto Anti-Human-Fc (AHC) biosensors. Loaded sensors were dipped into a serial of antigen dilutions (recombinant human vimentin) (300 nM start, 1:3 down, 7 points). Kinetic constants were calculated using a monovalent (1:1) model.

[6] = molecular target: T1, antigen of the potency binding ELISA of …; assay: binding (potency) ELISA, OD 450 nm against Log10 [mAb]; reference standard (tox) lot stored in PETG serum vial; coated antigen not named; the table cell has no unit, ug/ml is taken from the concentration axis
[7] = molecular target: T1, antigen of the potency binding ELISA of …; assay: binding (potency) ELISA, OD 450 nm against Log10 [mAb]; clinical drug substance lot stored in polypropylene cryovial; coated antigen not named
[8] = molecular target: T1, antigen of the potency binding ELISA of …; assay: binding ELISA, antigen not named; third lot (reference standard) stored in PETG serum vial
[9] = molecular target: T1, antigen of the potency binding ELISA of …; assay: binding ELISA (potency assay), antigen not named; lot stored in polypropylene cryovial
[10] = molecular target: T1, antigen of the potency binding ELISA of …; assay: binding (potency) ELISA, OD 450 nm against Log10 [mAb]; reference standard (tox) lot stored in polypropylene cryovial 1; coated antigen not named; the table cell has no unit, ug/ml is taken from the concentration axis
[11] = molecular target: T1, antigen of the potency binding ELISA of …; assay: binding ELISA, antigen not named; third lot (reference standard) stored in polypropylene cryovials, 3 vials
[12] = molecular target: T2, recombinant human vimentin; assay: BLI, Octet HTX, 25 C; pritumumab on anti-human-Fc (AHC) biosensors, recombinant human vimentin as analyte (300 nM start, 1:3, 7 points), 1:1 model
Description: as §1

B1: pritumumab (antibody, human IgG1, kappa, V domains shown)
VH: EVQLLESGGDLVQPGGSLRLSCAASGFTFSNYAMSWVRQAPGKGLEWVSAITPSGGSTNYADSVKGRFTISRDNSQNTLYLQMNSLRVEDTAVYICGRVPYRSTWYPLYWGQGTLVTVSS
VL: DIQMTQSPSSLSASVGDRVTITCRASQDISNYLAWFQQKPGKAPKSLIYAASSLHSKVPTQFSGSGSGTDFTLTISSLQPEDFATYYCLQYSTYPITFGGGTKVEIKR
notes: Several lots stored in different containers (glass, PETG, polypropylene) were tested; also called Pritumumab human monoclonal antibody
Binder B1 has an EC50 [1] of 40.2 µg/mL, an EC50 [2] of 37.1 µg/mL and an EC50 [3] of 9.6 µg/mL. It also gave an EC50 [4] of 8.25 µg/mL, a koff [5] of 0.000443 s⁻¹ and a kon [5] of 58700 M⁻¹ s⁻¹. The EC50 [6] was 11.4 µg/mL, the EC50 [7] was 20.1 µg/mL and the EC50 [8] was 11 µg/mL. The EC50 [9] was 20 µg/mL, the EC50 [10] was 38 µg/mL and the EC50 [11] was 37 to 40 µg/mL. For the same binder, the Kd [12] was 7.55 nM.
